B1: mRNA-splicing (parent)
chain: AGUUGCUGCUGGGAGCUCCAGCACAGUGAAAUGGACAGAAGGGCAGAGCAA

Variants of: B1
Assay: exon inclusion enrichment index; higher = more inclusion; WT1 exon 5 minigene, HEK293

Variant | exon inclusion enrichment index
G5C C6A U7C U10A | 0.259
G5C C6A U7C U10C | 3.16
G5C C6G U7C U10C A23U C24U | 0.822
G5C C6G U7C U10C A23U C24A | 2.3
G5C C6G U7C U10C A23U C24G | 3.71
G5C C6G U7C G8A C9G U10C | 2.31
G5C C6G U7C U10C A39U A40U | 1.88
G5C C6G U7C U10C A39U A40G | 1.59
G5C C6G U7C U10C A39U A40C | 3.55
G5C C6G U7C U10C C16G U17G | 1.27
G5C C6G U7C U10C C16G U17A | 4.71
G5C C6G U7C U10C C16G U17C | 2.62
G5C C6G U7C U10C A35U C36G | 0.445
G5C C6G U7C U10C A35U C36U | 0.0671
G5C C6G U7C U10C A35U C36A | 0.0112
G5C C6G U7A G8U U10C | 2.93
G5C C6A U7G G8A U10A | 0.0223
G5C C6G U7C U10C A23G | 3.57
G5C C6G U7C U10C A23C | 2.88
G5C C6G U7C U10C A23U | 2.51
G5C C6G U7C U10C A45U G46C | 2.33
G5C C6G U7C U10C A45U G46U | 1.75
G5C C6G U7C U10C A45U G46A | 2.95
G5C C6A U7C G8U C9U U10A | 0.0134

Variant | exon inclusion enrichment index
G5C C6G G8U U10C | 2.67
G5C C6G U7A U10C | 2.53
G5C C6G U7C U10C A29U A30G | 3.83
G5C C6G U7C U10C A29U A30U | 1.81
G5C C6G U7C U10C A29U A30C | 3.05
G5C C6A U7C G8A U10A U17C C18A | 0.063
G5C C6A U7C G8A U10A U17C C18U | 0.0619
G5C C6A U7C G8A U10A U17C C18G | 0.166
G5C C6G U7C U10C C22A A23G | 3.83
G5C C6G U7C U10C C22A A23U | 2.83
G5C C6G U7C U10C C22A A23C | 3.98
G5C C6G U7C U10C C24A A25C | 4.48
G5C C6A U7C G8A U10A U27A | 0.151
G5C C6A U7C G8A U10A U27C | 0.417
G5C C6A U7C G8A U10A U27G | 0.0422
G5C C6A U7G G8U U10A | 0.00932
G5C C6G U7C U10C A35C C36A | 2.13
G5C C6G U7C U10C A35C C36G | 2.6
G5C C6G U7C U10C A35C C36U | 0.625
G5C C6G U7A C9A U10A | 0.95
G5C C6G U7C U10C A23G C24U | 1.96
G5C C6G U7C U10C A23G C24G | 4.88
G5C C6G U7C U10C A23G C24A | 4.41
G5C C6G U7C U10C A20G | 0.887

Variant | exon inclusion enrichment index
G5C C6G U7C U10C A20U | 3.58
G5C C6G U7C U10C A20C | 3.4
G5C C6G U7C G8U C9U U10C | 2.82
G5C C6G U7C U10C A31G | 3.79
G5C C6G U7C U10C A31U | 3.18
G5C C6G U7C U10C A31C | 3.8
G5C C6G U7C G8A U10C | 3.31
G5C C6G U7C G8A U10A | 0.449
G5C C6G U7C G8U C9G U10C | 2.53
G5C C6A U7C G8U U10A | 0.146
G5C C6G U7C U10C A40C G41A | 1.9
G5C C6G U7C U10C A40C G41U | 1.83
G5C C6G U7C U10C A40C G41C | 3.53
G5C C6A U7C G8A U10A U32G G33A | 0.00787
G5C C6A U7C G8A U10A U32G G33C | 0.0862
G5C C6A U7C G8A U10A U32G G33U | 0.009
G5C C6A U7C G8U C9A U10A | 0.0885
G5C C6G U7C U10C A47U G48A | 3.03
G5C C6G U7C U10C A47U G48U | 3.16
G5C C6G U7C U10C A47U G48C | 2.42
G5C C6G U7C U10C C18G C19G | 4.32
G5C C6G U7C U10C C18G C19U | 1.44
G5C C6G U7C U10C C18G C19A | 4.24
G5C C6G U7C C9U U10G | 1.02

Variant | exon inclusion enrichment index
G5C C6G U7C C9U U10A | 0.144
G5C C6G U7C C9U U10C | 3.88
G5C C6G U7C C9A U10C | 4
G5C C6G U7C C9A U10G | 1.77
G5C C6G U7C C9A U10A | 1.93
G5C C6G U7C U10C C18A C19U | 0.321
G5C C6G U7C U10C C18A C19G | 1.5
G5C C6G U7C U10C C18A C19A | 1.63
G5C C6G G8C U10C | 3.08
G5C C6G U7C U10C A14U G15A | 1.41
G5C C6G U7C U10C A14U G15C | 1.8
G5C C6G U7C U10C A14U G15U | 1.46
G5C C6A U7C G8A U10C G11U | 1.71
G5C C6A U7C G8A U10C G11A | 1.06
G5C C6A U7C G8A U10C G11C | 1.58
G5C C6G U7C U10C A23C C24U | 2.07
G5C C6G U7C U10C A23C C24A | 3.49
G5C C6G U7C U10C A23C C24G | 5.29
G5C C6A U7C G8C U10A | 0.494
G5C C6G U7C U10C C16A U17A | 4.02
G5C C6G U7C U10C C16A U17C | 4.04
G5C C6G U7C U10C C16A U17G | 3.25
G5C C6G U7C G11U | 2.67
G5C C6G U7C G11A | 0.993

Variant | exon inclusion enrichment index
G5C C6G U7C G11C | 2.28
G5C C6G U7C G8C U10C | 2.87
G5C C6G U7C U10C C19U A20C | 3.09
G5C C6G U7C U10C C19U A20G | 1.14
G5C C6G U7C U10C C19U A20U | 1.48
G5C C6G U7C G8A C9A U10C | 3.14
G5C C6G U7C U10C A37G G38U | 1.81
G5C C6G U7C U10C A37G G38C | 3.22
G5C C6G U7C U10C A37G G38A | 2.92
G5C C6G U7C U10C A14G | 1.93
G5C C6G U7C U10C A14U | 1.05
G5C C6G U7C U10C A14C | 1.99
G5C C6A U7C G8C C9A U10A | 0.741
G5C C6G U7C U10C C19A | 2.65
G5C C6G U7C U10C C19G | 3.72
G5C C6G U7C U10C C19U | 0.492
G5C C6A U7C G8C C9U U10C | 1.98
G5C C6A U7C G8C C9U U10A | 0.107
G5C C6G U7C G8U C9A U10C | 2.74
G5C C6G U7A G8C U10C | 2.57
G5C C6G U7C U10C A25C G26A | 4.67
G5C C6G U7C U10C A25C G26U | 4.06
G5C C6G U7C U10C A25C G26C | 4.35
G5C C6G U7C U10C A30U A31C | 3.11

Variant | exon inclusion enrichment index
G5C C6G U7C U10C A30U A31G | 3.75
G5C C6G U7C U10C A30U A31U | 3.18
G5C C6A U10C | 1.97
G5C C6A U10A | 0.116
G5C C6A U7C G8A U10A U17A C18U | 0.0447
G5C C6A U7C G8A U10A U17A C18G | 0.0895
G5C C6A U7C G8A U10A U17A C18A | 0.043
G5C C6G U7A G8C C9U U10C | 3.05
G5C C6A U7G G8C U10A | 0.0276
G5C C6G U7C G8A C9U U10C | 3.11
G5C C6A U7C G8A U10A U32C G33C | 0.153
G5C C6A U7C G8A U10A U32C G33U | 0.0717
G5C C6A U7C G8A U10A U32C G33A | 0.033
G5C C6G U7C U10C A14C G15U | 1.33
G5C C6G U7C U10C A14C G15A | 1.07
G5C C6G U7C U10C A14C G15C | 1.16
G5C C6G U7C U10C A47G G48U | 0.733
G5C C6G U7C U10C A47G G48A | 2.55
G5C C6G U7C U10C A47G G48C | 2.32
G5C C6G U7A G8U C9A | 1.06
G5C C6G U7C U10C A39U | 0.26
G5C C6G U7C U10C A39G | 2.45
G5C C6G U7C U10C A39C | 1.45
G5C C6A U7C G8A U10A G46U | 0.0644

Variant | exon inclusion enrichment index
G5C C6A U7C G8A U10A G46A | 0.143
G5C C6A U7C G8A U10A G46C | 0.0718
G5C C6G U7C U10C A45U | 4.56
G5C C6G U7C U10C A45C | 3.17
G5C C6G U7C U10C A45G | 5.32
G5C C6A U7C G8A U10A G46U A47U | 0.206
G5C C6A U7C G8A U10A G46U A47G | 0.118
G5C C6A U7C G8A U10A G46U A47C | 0.501
G5C C6A U7C G8A U10A G46C A47C | 0.209
G5C C6A U7C G8A U10A G46C A47U | 0.141
G5C C6A U7C G8A U10A G46C A47G | 0.199
G5C C6G U7C U10C C24A | 3.28
G5C C6G U7C U10C A39G A40C | 3.86
G5C C6G U7C U10C A39G A40U | 0.671
G5C C6G U7C U10C A39G A40G | 0.367
G5C C6G U7C U10C A14G G15U | 1.21
G5C C6G U7C U10C A14G G15A | 2.07
G5C C6G U7C U10C A14G G15C | 1.64
G5C C6G U7C U10C A35G C36A | 2.07
G5C C6G U7C U10C A35G C36U | 0.0687
G5C C6G U7C U10C A35G C36G | 0.751
G5C C6G U7C U10C A37C G38A | 2.71
G5C C6G U7C U10C A37C G38C | 2.99
